Laboratory results published in US20200017592A1 (Regeneron, published 2020).
Each block holds one binder with its values, some of them ahead of it.

What was measured:
[1] = target: T1, human IL-36R extracellular domain expressed with a C-terminal mouse IgG2a Fc tag (hIL-36R-mFc) (human; mouse, UniProt Q9HB29 20-337); test: SPR Biacore 4000, mAb captured on anti-hFc, 25C
T1 construct: not shown: mouse IgG2a Fc, E98-K330
T1 sequence (looked up): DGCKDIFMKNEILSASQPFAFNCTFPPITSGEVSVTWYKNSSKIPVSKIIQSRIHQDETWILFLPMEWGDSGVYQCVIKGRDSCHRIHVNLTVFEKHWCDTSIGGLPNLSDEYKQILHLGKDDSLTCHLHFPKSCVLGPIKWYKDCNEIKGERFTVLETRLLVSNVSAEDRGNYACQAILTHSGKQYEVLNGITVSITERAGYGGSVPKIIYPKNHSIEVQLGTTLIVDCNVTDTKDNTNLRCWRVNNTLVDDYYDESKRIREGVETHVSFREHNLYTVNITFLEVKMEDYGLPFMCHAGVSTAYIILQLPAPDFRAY
How it was run: (§1)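 Receptor binding to Fc-captured antibodies is measured in HBS-ET running buffer, pH 7.4, with a 3-fold analyte series from 100 nM to 3.7 nM. Rate constants from a 1:1 fit yield KD.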

[2] = target: T2, in-line fusion protein of human IL-36R extracellular domain and IL1RAcP extracellular domain expressed with … (human; mouse, UniProt Q9HB29 20-337; Q9NPH3 21-359, limits assumed); test: SPR Biacore 4000, mAb captured on anti-hFc, 25C
T2 construct: not shown: mouse IgG2a Fc
T2 sequence (looked up): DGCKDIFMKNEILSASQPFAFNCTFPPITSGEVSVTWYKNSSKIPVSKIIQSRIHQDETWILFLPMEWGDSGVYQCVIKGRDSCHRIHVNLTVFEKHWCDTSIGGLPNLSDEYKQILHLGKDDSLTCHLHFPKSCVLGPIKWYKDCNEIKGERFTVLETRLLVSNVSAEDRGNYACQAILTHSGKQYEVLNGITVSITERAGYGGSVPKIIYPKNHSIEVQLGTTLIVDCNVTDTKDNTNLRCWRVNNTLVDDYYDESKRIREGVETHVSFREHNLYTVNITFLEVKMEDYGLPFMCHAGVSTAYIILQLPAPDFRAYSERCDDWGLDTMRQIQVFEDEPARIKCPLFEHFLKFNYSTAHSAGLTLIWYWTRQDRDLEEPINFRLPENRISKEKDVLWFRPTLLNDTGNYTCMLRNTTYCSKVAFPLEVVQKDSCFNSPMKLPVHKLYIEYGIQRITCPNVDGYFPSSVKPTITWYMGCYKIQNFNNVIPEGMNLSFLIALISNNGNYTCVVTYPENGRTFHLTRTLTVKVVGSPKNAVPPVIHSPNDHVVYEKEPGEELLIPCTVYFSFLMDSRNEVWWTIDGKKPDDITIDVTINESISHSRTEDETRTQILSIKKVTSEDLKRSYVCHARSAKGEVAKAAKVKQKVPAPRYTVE
How it was run: as §1

[3] = target: T1, human IL-36R extracellular domain …; test: SPR Biacore 4000, mAb captured on anti-hFc, 37C
How it was run: as §1

[4] = target: T2, in-line fusion protein of human IL-36R …; test: SPR Biacore 4000, mAb captured on anti-hFc, 37C
How it was run: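 KD and t½ derived from ka/kd of 1:1 fits; mAb on anti-hFc capture; analyte 100–3.7 nM, 4 min on, 10 min off, 30 μL/minute; HBS-ET buffer with 0.01 M Hepes pH 7.4, 0.15 M NaCl.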

[5] = target: T3, human IL-36R extracellular domain expressed with a C-terminal myc-myc-hexahistidine tag (hIL-36R-MMH) (human, UniProt Q9HB29 20-337); test: SPR Biacore T200, mAb captured on anti-hFc, 25C, PBS-T pH 7.4 running buffer
T3 construct: also called Human IL-36R-MMH; REGN2105
How it was run: (§2)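 Antibodies captured on an anti-human Fc surface; hIL-36R-MMH injected at 100-11.11 nM (3-fold) in PBS-T pH 7.4 for 4 min at 50 μL/min. Dissociation followed 10 min in PBS-T pH 7.4 or pH 6.0 at 25 °C or 37 °C; kd from 1:1 fit, t1/2 derived from kd.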

[6] = target: T3, human IL-36R extracellular domain …; test: SPR Biacore T200, mAb captured on anti-hFc, 37C, PBS-T pH 6.0 running buffer
How it was run: as §2

[7] = target: T3, human IL-36R extracellular domain …; test: SPR Biacore T200, mAb captured on anti-hFc, 37C, PBS-T pH 7.4 running buffer
How it was run: as §2

[8] = target: T3, human IL-36R extracellular domain …; test: SPR Biacore T200, mAb captured on anti-hFc, 25C, PBS-T pH 6.0 running buffer
How it was run: as §2

[9] = target: T4, human IL-36R (IL1RL2) on primary human cells (human, UniProt Q9HB29 20-575); test: cell-based or functional assay
T4 sequence (looked up): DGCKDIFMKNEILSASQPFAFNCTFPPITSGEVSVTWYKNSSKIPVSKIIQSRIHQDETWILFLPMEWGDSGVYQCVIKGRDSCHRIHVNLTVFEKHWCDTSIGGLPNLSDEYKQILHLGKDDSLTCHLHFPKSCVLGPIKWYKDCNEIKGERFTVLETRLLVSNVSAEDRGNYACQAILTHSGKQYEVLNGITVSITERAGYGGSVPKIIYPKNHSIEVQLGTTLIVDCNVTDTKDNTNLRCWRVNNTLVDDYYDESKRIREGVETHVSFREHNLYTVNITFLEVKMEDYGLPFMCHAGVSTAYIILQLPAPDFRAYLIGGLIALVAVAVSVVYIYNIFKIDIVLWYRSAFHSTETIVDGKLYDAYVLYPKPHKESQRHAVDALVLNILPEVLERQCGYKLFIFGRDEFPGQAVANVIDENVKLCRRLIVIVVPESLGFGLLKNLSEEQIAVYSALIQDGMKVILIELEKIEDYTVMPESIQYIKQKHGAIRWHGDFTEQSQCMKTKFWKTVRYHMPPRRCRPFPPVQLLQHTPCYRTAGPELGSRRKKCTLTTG

100 nM hIL-36R-mFc Bound (RU) [1]: 121 RU | Kd [1]: 0.526 nM | koff [1]: 0.000109 s⁻¹ | kon [1]: 207000 M⁻¹ s⁻¹ | t1/2 [1]: 106 min | 100 nM hIL-36R-Trap-mFc Bound (RU) [2]: 134 RU | Kd [2]: 0.636 nM | koff [2]: 0.0001 s⁻¹ | kon [2]: 158000 M⁻¹ s⁻¹ | t1/2 [2]: 115 min | 100 nM hIL-36R-mFc Bound (RU) [3]: 173 RU | Kd [3]: 1.02 nM | koff [3]: 0.000222 s⁻¹ | kon [3]: 217000 M⁻¹ s⁻¹ | t1/2 [3]: 52 min | 100 nM hIL-36R-Trap-mFc Bound (RU) [4]: 195 RU | Kd [4]: 1.7 nM | koff [4]: 0.000283 s⁻¹ | kon [4]: 166000 M⁻¹ s⁻¹ | t1/2 [4]: 41 min | 100 nM Human IL-36R-MMH Bound (RU) [5]: 80 RU | koff [5]: 0.000545 s⁻¹ | t1/2 [5]: 21 min | 100 nM hIL-36R-MMH Bound (RU) [6]: 85 RU | koff [6]: 0.0039 s⁻¹ | t1/2 [6]: 3 min | 100 nM hIL-36R-MMH Bound (RU) [7]: 94 RU | koff [7]: 0.00187 s⁻¹ | t1/2 [7]: 6 min | 100 nM Human IL-36R-MMH Bound (RU) [8]: 69 RU | koff [8]: 0.000972 s⁻¹ | t1/2 [8]: 12 min
B1: H4H14760P2 (antibody, human IgG4 S228P, kappa, V domains shown)
VH: QVQLVESGGGVVQPGKSLRLSCAASGFTFSNYGIHWVRQAPGKGLEWVAIILYDGSNQHYADSVKGRFTISRDNSKNTLYLQMNNLRAEDTAVYYCARDLDLWSGYYTNGDGMDVWGQGTTVTVSS
VL: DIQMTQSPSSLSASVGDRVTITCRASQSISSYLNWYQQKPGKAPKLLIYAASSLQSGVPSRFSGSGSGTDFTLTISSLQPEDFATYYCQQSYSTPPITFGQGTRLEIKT
notes: Fully human anti-IL-36R antibody

100 nM hIL-36R-mFc Bound (RU) [1]: 161 RU | Kd [1]: 0.309 nM | koff [1]: 0.000163 s⁻¹ | kon [1]: 526000 M⁻¹ s⁻¹ | t1/2 [1]: 71 min | 100 nM hIL-36R-Trap-mFc Bound (RU) [2]: 197 RU | Kd [2]: 0.413 nM | koff [2]: 0.00018 s⁻¹ | kon [2]: 436000 M⁻¹ s⁻¹ | t1/2 [2]: 64 min | 100 nM hIL-36R-mFc Bound (RU) [3]: 210 RU | Kd [3]: 0.517 nM | koff [3]: 0.000286 s⁻¹ | kon [3]: 554000 M⁻¹ s⁻¹ | t1/2 [3]: 40 min | 100 nM hIL-36R-Trap-mFc Bound (RU) [4]: 251 RU | Kd [4]: 0.777 nM | koff [4]: 0.000363 s⁻¹ | kon [4]: 468000 M⁻¹ s⁻¹ | t1/2 [4]: 32 min | 100 nM Human IL-36R-MMH Bound (RU) [5]: 108 RU | koff [5]: 0.00112 s⁻¹ | t1/2 [5]: 10 min | 100 nM hIL-36R-MMH Bound (RU) [6]: 120 RU | koff [6]: 0.00339 s⁻¹ | t1/2 [6]: 3 min | 100 nM hIL-36R-MMH Bound (RU) [7]: 126 RU | koff [7]: 0.00226 s⁻¹ | t1/2 [7]: 5 min | 100 nM Human IL-36R-MMH Bound (RU) [8]: 103 RU | koff [8]: 0.0018 s⁻¹ | t1/2 [8]: 6 min
B4: H4H14758P (antibody, human IgG4 S228P, kappa, V domains shown)
VH: EVQLVESGGGLVQPGRSLRLSCAASGFTFDDYAMHWVRQAPGKGLEWVSSVRWNGGIIGYADSVKGRFTISRDNAKNSLYLQMNSLRPEDTALYYCAKDIGDVLTGYYGEYGMDVWGQGTTVTVSS
VL: DIQMTQSPSSLSASVGDRVTIACRASQSITTYLNWYQQKPGKAPKLLIYAASSLQSGVPSRFSGSGSGTDFTLTISSLQPEDFATYYCQQSYISPYTFGQGTKLEIKR
notes: as for B1

Second part, the binder before the results:

B2: H4H14706P2 (antibody, human IgG4 S228P, kappa, V domains shown)
VH: EVQLVESGGGLVQPGRSLRLSCTASGFTFDDYAIHWVRQSPGKGLEWVSVISWNSDVIGYADSVKGRFTISRDNAKNSLYLQMNSLRAEDTALYYCAKGYNWNFFDYWGQGTLVTVSS
VL: EIVLTQSPATLSLSPGERATLSCRASQSVSSYLAWYQQKPGQAPRLLIYNAANRATDIPARFSGSGSGTDFTLTISSLEPEDFAVYYCQQRSNWPLTFGGGTKVEIKR
IC50 [M], IL-8 production, InMyoFib stimulated with 10 nM hIL-36α [9]: 4.89e-09 M | IC50 [M], IL-8 production, InMyoFib stimulated with 10 nM hIL-36β [9]: 3.62e-09 M | IC50 [M], IL-8 production, InMyoFib stimulated with 10 nM hIL-36γ [9]: 4.59e-09 M | IC50 [M], IL-8 production, NHEK stimulated with 10 nM hIL-36α [9]: 4.42e-09 M | IC50 [M], IL-8 production, NHEK stimulated with 10 nM hIL-36β [9]: 3.62e-09 M | IC50 [M], IL-8 production, NHEK stimulated with 10 nM hIL-36γ [9]: 2.11e-09 M | IC50 [M], IL-8 production, PB-derived CD14+ Monocytes stimulated with 10 nM hIL-36α [9]: 1.15e-09 M | IC50 [M], IL-8 production, PB-derived CD14+ Monocytes stimulated with 10 nM hIL-36β [9]: 1.74e-09 M | IC50 [M], IL-8 production, PB-derived CD14+ Monocytes stimulated with 10 nM hIL-36γ [9]: 1.58e-09 M

B3: H4H14708P2 (antibody, human IgG4 S228P, kappa, V domains shown)
VH: EVQLVESGGDLVQPGRSLRLSCAASGFTFDDYAMHWVRQAPGKGLEWVSVISWNSDVIAYSDSVKGRFTISRDNAKNSLYLQMNSLRTEDTALYYCTKGHKWSFFDYWGQGTLVTVSS
VL: EIVLTQSPATLSLSPGERATLSCRASQSISSYLAWYQQKPGQAPRLLIFNVANRATDIPARFSGSGSGTDFTLTISSLEPEDFAVYYCQQRSNWPLTFGGGTKVEIKR
IC50 [M], IL-8 production, InMyoFib stimulated with 10 nM hIL-36α [9]: 5.72e-09 M | IC50 [M], IL-8 production, InMyoFib stimulated with 10 nM hIL-36β [9]: 5.3e-09 M | IC50 [M], IL-8 production, InMyoFib stimulated with 10 nM hIL-36γ [9]: 6.4e-09 M | IC50 [M], IL-8 production, NHEK stimulated with 10 nM hIL-36α [9]: 5.06e-09 M | IC50 [M], IL-8 production, NHEK stimulated with 10 nM hIL-36β [9]: 5.79e-09 M | IC50 [M], IL-8 production, NHEK stimulated with 10 nM hIL-36γ [9]: 3.63e-09 M | IC50 [M], IL-8 production, PB-derived CD14+ Monocytes stimulated with 10 nM hIL-36α [9]: 2.38e-09 M | IC50 [M], IL-8 production, PB-derived CD14+ Monocytes stimulated with 10 nM hIL-36β [9]: 2.24e-09 M | IC50 [M], IL-8 production, PB-derived CD14+ Monocytes stimulated with 10 nM hIL-36γ [9]: 1.95e-09 M
